Results on 15 molecules are retold here after US20210356479A1 (BLOODWORKS, published 2021).

T1: human Kell glycoprotein, k form (KEL2) (human, UniProt P23276 1-732)
T1 construct: whole, on cells; On human k/k or K-k+ RBCs; also called k antigen
T1 sequence (looked up): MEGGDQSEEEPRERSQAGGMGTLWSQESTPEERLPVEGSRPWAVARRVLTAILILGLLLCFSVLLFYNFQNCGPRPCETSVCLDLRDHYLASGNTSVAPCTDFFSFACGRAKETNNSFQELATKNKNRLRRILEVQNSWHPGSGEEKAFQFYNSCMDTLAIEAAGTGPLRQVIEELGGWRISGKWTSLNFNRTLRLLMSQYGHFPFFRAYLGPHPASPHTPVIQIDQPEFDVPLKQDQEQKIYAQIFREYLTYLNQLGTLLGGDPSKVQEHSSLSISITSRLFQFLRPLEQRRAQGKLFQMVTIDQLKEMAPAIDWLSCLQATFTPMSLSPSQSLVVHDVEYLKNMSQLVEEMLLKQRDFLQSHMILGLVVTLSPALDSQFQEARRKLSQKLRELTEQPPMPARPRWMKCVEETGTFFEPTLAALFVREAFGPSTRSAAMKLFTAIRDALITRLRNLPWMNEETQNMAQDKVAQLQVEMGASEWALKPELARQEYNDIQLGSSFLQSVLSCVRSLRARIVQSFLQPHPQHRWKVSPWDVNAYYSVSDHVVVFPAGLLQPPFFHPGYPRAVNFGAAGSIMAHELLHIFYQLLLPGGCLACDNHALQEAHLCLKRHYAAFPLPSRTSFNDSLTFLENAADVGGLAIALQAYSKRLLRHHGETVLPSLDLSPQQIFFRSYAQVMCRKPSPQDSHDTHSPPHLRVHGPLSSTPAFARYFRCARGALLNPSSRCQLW

T2: human Kell glycoprotein, K form (KEL1) (human, UniProt P23276 1-732)
T2 construct: whole, on cells; On human K/K or K+k+ RBCs and on RBCs of K transgenic mice; also called K antigen; K variant
T2 sequence (looked up): T1 sequence (looked up) with T193M

B1: PUMA 1 human IgG1-03 isoallotype (antibody)
heavy: EVQLQQSGPELVKPGASVKMSCKASGYTFTDYYMKWVKQSHGKSLEWIGDLNPNNGDTFYNQKFKGKATLTVDKSSSTAYIQLNSLTSEDSAVYYCAREAGSSFGSSCNYWGQGTTLTVS
light: SVVMTQTPKFLLVSAGDRVTITCKASQTVSKDVAWYQQQPGQSPKLLIYYASNRYTGVPDRFTGSGYGTDFTFTISTVQAEDLAVYFCQQDYSSPYTFGGGTKLEIK
notes: Isoallotype named in CLM-00007; not shown: human IgG1 heavy chain constant region, isoallotype IGHG1*03; human kappa light chain constant region (vector pFUSE2-CLIg-hk)
B2: PUMA 1 human IgG3-03 isoallotype (antibody)
heavy: B1 heavy
light: B1 light
notes: also called PUMA1-IgG3-03; not shown: human kappa light chain constant region (vector pFUSE2-CLIg-hk)
B3: PUMA 1 human IgG2 (canonical, isoallotype IgG2-01) (antibody)
heavy: EVQLQQSGPELVKPGASVKMSCKASGYTFTDYYMKWVKQSHGKSLEWIGDLNPNNGDTFYNQKFKGKATLTVDKSSSTAYIQLNSLTSEDSAVYYCAREAGSSFGSSCNYWGQGTTLTVSASTKGPSVFPLAPCSRSTSESTAALGCLVKDYFPEPVTVSWNSGALTSGVHTFPAVLQSSGLYSLSSVVTVPSSNFGTQTYTCNVDHKPSNTKVDKTVERKCCVECPPCPAPPVAGPSVFLFPPKPKDTLMISRTPEVTCVVVDVSHEDPEVQFNWYVDGVEVHNAKTKPREEQFNSTFRVVSVLTVVHQDWLNGKEYKCKVSNKGLPAPIEKTISKTKGQPREPQVYTLPPSREEMTKNQVSLTCLVKGFYPSDIAVEWESNGQPENNYKTTPPMLDSDGSFFLYSKLTVDKSRWQQGNVFSCSVMHEALHNHYTQKSLSLSPGK
light: B1 light
notes: also called PUMA1-IgG2; PUMA 1 IgG2; not shown: human kappa light chain constant region (vector pFUSE2-CLIg-hk)
B4: PUMA 1 human IgG1-01v2 isoallotype (antibody)
heavy: B1 heavy
light: B1 light
notes: Isoallotype named in CLM-00007; also called IGHG1*01v2; not shown: human IgG1 heavy chain constant region, isoallotype IGHG1*01v2; human kappa light chain constant region (vector pFUSE2-CLIg-hk)
B5: PUMA 1 human IgG4 (canonical, isoallotype IgG4-01) (antibody)
heavy: EVQLQQSGPELVKPGASVKMSCKASGYTFTDYYMKWVKQSHGKSLEWIGDLNPNNGDTFYNQKFKGKATLTVDKSSSTAYIQLNSLTSEDSAVYYCAREAGSSFGSSCNYWGQGTTLTVSASTKGPSVFPLAPCSRSTSESTAALGCLVKDYFPEPVTVSWNSGALTSGVHTFPAVLQSSGLYSLSSVVTVPSSSLGTKTYTCNVDHKPSNTKVDKRVESKYGPPCPSCPAPEFLGGPSVFLFPPKPKDTLMISRTPEVTCVVVDVSQEDPEVQFNWYVDGVEVHNAKTKPREEQFNSTYRVVSVLTVLHQDWLNGKEYKCKVSNKGLPSSIEKTISKAKGQPREPQVYTLPPSQEEMTKNQVSLTCLVKGFYPSDIAVEWESNGQPENNYKTTPPVLDSDGSFFLYSRLTVDKSRWQEGNVFSCSVMHEALHNHYTQKSLSLSPGK
light: B1 light
notes: also called PUMA1-IgG4; PUMA 1 IgG4; not shown: human kappa light chain constant region (vector pFUSE2-CLIg-hk)
B6: PUMA 1 human IgG1-04v2 isoallotype (antibody)
heavy: B1 heavy
light: B1 light
notes: Isoallotype named in CLM-00007; also called IGHG1*04v2; not shown: human IgG1 heavy chain constant region, isoallotype IGHG1*04v2; human kappa light chain constant region (vector pFUSE2-CLIg-hk)
B7: PUMA 1 human IgG1-07 isoallotype (antibody)
heavy: B1 heavy
light: B1 light
notes: Isoallotype named in CLM-00007; not shown: human IgG1 heavy chain constant region, isoallotype IGHG1*07; human kappa light chain constant region (vector pFUSE2-CLIg-hk)
B8: PUMA 1 human IgG3-04 isoallotype (antibody)
heavy: B1 heavy
light: B1 light
notes: Isoallotype named in CLM-00007; not shown: human IgG3 heavy chain constant region, isoallotype IGHG3*04; human kappa light chain constant region (vector pFUSE2-CLIg-hk)
B9: PUMA 1 human IgG1-08 isoallotype (antibody)
heavy: B1 heavy
light: B1 light
notes: Isoallotype named in CLM-00007; not shown: human IgG1 heavy chain constant region, isoallotype IGHG1*08; human kappa light chain constant region (vector pFUSE2-CLIg-hk)
B10: PUMA 1 human IgG3 (canonical, isoallotype IgG3-01) (antibody)
heavy: EVQLQQSGPELVKPGASVKMSCKASGYTFTDYYMKWVKQSHGKSLEWIGDLNPNNGDTFYNQKFKGKATLTVDKSSSTAYIQLNSLTSEDSAVYYCAREAGSSFGSSCNYWGQGTTLTVSASTKGPSVFPLAPCSRSTSGGTAALGCLVKDYFPEPVTVSWNSGALTSGVHTFPAVLQSSGLYSLSSVVTVPSSSLGTQTYTCNVNHKPSNTKVDKRVELKTPLGDTTHTCPRCPEPKSCDTPPPCPRCPEPKSCDTPPPCPRCPEPKSCDTPPPCPRCPAPELLGGPSVFLFPPKPKDTLMISRTPEVTCVVVDVSHEDPEVQFKWYVDGVEVHNAKTKPREEQYNSTFRVVSVLTVLHQDWLNGKEYKCKVSNKALPAPIEKTISKTKGQPREPQVYTLPPSREEMTKNQVSLTCLVKGFYPSDIAVEWESSGQPENNYNTTPPMLDSDGSFFLYSKLTVDKSRWQQGNIFSCSVMHEALHNRFTQKSLSLSPGK
light: B1 light
notes: also called PUMA1-IgG3; PUMA 1 IgG3; not shown: human kappa light chain constant region (vector pFUSE2-CLIg-hk)
B11: PUMA 1 human IgG2-02 isoallotype (antibody)
heavy: B1 heavy
light: B1 light
notes: Isoallotype named in CLM-00007; not shown: human IgG2 heavy chain constant region, isoallotype IGHG2*02; human kappa light chain constant region (vector pFUSE2-CLIg-hk)
B12: PUMA 1 human IgG1 (canonical, isoallotype IgG1-01) (antibody)
heavy: not shown
light: B1 light
notes: also called PUMA1-IgG1; PUMA 1 IgG1; not shown: human kappa light chain constant region (vector pFUSE2-CLIg-hk)
B13: PUMA 1 human IgG1-05 isoallotype (antibody)
heavy: B1 heavy
light: B1 light
notes: Isoallotype named in CLM-00007; not shown: human IgG1 heavy chain constant region, isoallotype IGHG1*05; human kappa light chain constant region (vector pFUSE2-CLIg-hk)
B14: PUMA 1 human IgG2-06 isoallotype (antibody)
heavy: B1 heavy
light: B1 light
notes: Isoallotype named in CLM-00007; not shown: human IgG2 heavy chain constant region, isoallotype IGHG2*06; human kappa light chain constant region (vector pFUSE2-CLIg-hk)
B15: PUMA 1 human IgG2-04 isoallotype (antibody)
heavy: B1 heavy
light: B1 light
notes: Isoallotype named in CLM-00007; not shown: human IgG2 heavy chain constant region, isoallotype IGHG2*04; human kappa light chain constant region (vector pFUSE2-CLIg-hk)

Substitutions are numbered along the chain they refer to.

The target in one assay is T1, human Kell glycoprotein, k form (KEL2). Put plainly: flow cytometry on human K-k+ RBCs.
For the molecule B1, the binding result is reported as “no binding”.

Regarding B2, the binding result is listed as “no binding”.

As for B3, the binding result is “no binding”.

As to B4, the binding result is reported as “no binding”.

For the molecule B5, the binding result was “no binding”.

Turning to B6, the binding result is listed as “no binding”.

In the case of B7, the binding result is given as “no binding”.

As to B8, the binding result is “no binding”.

B9: the binding result was “no binding”.

Take B10: the binding result is given as “no binding”.

For the molecule B11, the binding result was “no binding”.

For the molecule B12, the binding result is on record as “no binding”.

As to B13, the binding result was “no binding”.

As for B14, the binding result is reported as “no binding”.

In the case of B15, the binding result is given as “no binding”.

The next assay concerns the target T2, human Kell glycoprotein, K form (KEL1). Nature of the assay: flow cytometry on human K+k+ RBCs, detected with polyclonal anti-IgG. As for the experimental part: Flow cytometry consisted of incubating test RBCs with PUMA 1 variants, followed by the anti-IgG being evaluated, followed by a detection reagent. Test RBCs included RBCs from K mice, wild-type mice, and reagent RBCs from humans with the phenotype of (K+k+) or (K−k+). Test RBCs were resuspended in 50 microliters of supernatants of PUMA 1 isoallotypes; in some cases a 1/10 dilution in phosphate buffered saline (PBS) was used. For purified IgG1-IgG4 PUMA 1, the antibodies were diluted in PBS at the indicated concentrations. The tested anti-IgG reagents were used undiluted. Detection reagents consisted of donkey anti-rabbit conjugated to phycoerythrin at a 1/200 dilution (Affymetrix cat #12-4739-81, Santa Clara, Calif.), goat anti-mouse IgM conjugated to allophycocyanin at a 1/100 dilution (BD Biosciences, cat #550826, San Jose, Calif.), and goat anti-mouse Igs conjugated to allophycocyanin at a 1/100 dilution (SouthernBiotech cat #1020-11s, Birmingham, Ala.). All anti-IgG subclass antibodies were conjugated to phycoerythrin, were purchased from SouthernBiotech (catalog numbers 9056-09, 9070-09, 9210-09, 9200-09), and were used at a dilution of 1.200. All incubations were performed for 30 min at room temperature, followed by three washes with PBS. All flow cytometry was performed on an Accuri 4 color cytometer (BD biosciences, San Jose Calif.) and all data was analyzed with Flo-Jo version 10.
To assess the sensitivity of commercially available anti-IgG preparations for different human IgG subclasses bound to RBCs, K+k+ RBCs were first incubated with PUMA 1 of the different human IgG subclasses, followed by incubation with anti-IgG. Treated RBCs were then stained with a fluorescently labeled antibody specific for the species in which the anti-IgG was generated (and non-reactive with human IgG). For each anti-IgG, the same secondary antibody was used to detect binding of the anti-IgG to each human PUMA 1 IgG subclass. To assess relative sensitivity, titrations of each PUMA 1 IgG subclass were carried out and samples were analyzed by flow cytometry using mean fluorescent intensity (MFI) to quantify staining (FIGS. 28A, 28B).
Regarding B1, the binding result is given as “binds”.

Regarding B2, the binding result is “binds”.

For B4, the binding result is “binds”.

With B6, the binding result is on record as “binds”.

B7: the binding result is listed as “binds”.

For the molecule B8, the binding result is “binds”.

As to B9, the binding result is “binds”.

With B11, the binding result was “binds”.

Take B13: the binding result is recorded as “binds”.

Take B14: the binding result is “binds”.

As to B15, the binding result is “binds”.
